Laboratory results: the supplement of paper PMC10126150
± gives the standard deviation of the averaged measurements.

tested on: ATP; assay: switch fluorescence ratio, 500 uM ATP over buffer (Cy3 cluster intensity, sum of 5 cycles each) (fold (ratio)); higher = stronger signal-on switching upon ATP binding; sequences stand for … in TCGTCGGCAGCGTCAGATGTGTATAAGAGACAGTTTTTTTTTTTTTTTTTTTTTTTTT…TC; settings: aptamer strand: ATP DNA aptamer (quencher-CACCTGGGGGAGTATTGCGGAGGAAGG + anchor), 100 nM annealed; ATP concentration: 500 uM
Method in brief: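 Switching-strand clusters labelled with Cy3 on a modified Illumina MiSeq flow-cell were annealed to 100 nM quencher-labelled ATP aptamer, imaged in selection buffer, and re-imaged after 15 min with 500 uM ATP at 22 °C. This was done over five cycles with NaOH stripping and re-annealing in between. The fluorescence ratio is summed target-cycle over summed buffer-cycle Cy3 intensity per cluster, averaged per switch-domain sequence, excluding clusters outside 100-1000 RFU.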
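Note: ATP exposure 15 min at 22 °C before imaging.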

Sequence	switch fluorescence ratio
GAAAGGGCTG	1.05 ± 0.087
TTCCCATTTA	1.04 ± 0.02
AAGTATTATT	0.983 ± 0.03
AGCAGAAGGA	1.02 ± 0.015
GCCTGGGAAG	0.976 ± 0.036
AGACAGGGCT	1.02 ± 0.042
GAGGGCACGC	0.968 ± 0.06
ATTGGTAACC	1.01 ± 0.039
CAAGTGGCAC	0.977 ± 0.022
TTTTGTTAAA	1.01 ± 0.028
CATGTATGTT	1.01 ± 0.012
TTACTTGGCT	1.01 ± 0.032
AATCGGGTCA	0.985 ± 0.021
CGTTTTTCTG	0.968 ± 0.013
TAATCCTTTG	1.01 ± 0.048
TTCAGTGTGG	0.971 ± 0.022
GGGAAGGCCA	0.973 ± 0.024
AAGCAGGGCT	0.999 ± 0.019
GTTATTTACT	1.024 ± 0.0033
TGACCGGGGG	1.0571 ± 5.2e-05
TTAATTGCTT	1.01 ± 0.043
TGGAAGGGGT	1.09 ± 0.14

Sequence	switch fluorescence ratio
AAGGGTAGTT	0.997 ± 0.028
AATGTTTATT	0.954 ± 0.01
ATTGGGCACC	0.998 ± 0.048
CGTTTACTTT	0.984 ± 0.059
ATTGGTGATT	0.974 ± 0.038
AGGAATGACT	1 ± 0.023
CTAATGGAGC	0.98 ± 0.017
GGTGCTAGAA	0.9789 ± 0.0083
TTACGTTTGG	1.02 ± 0.025
GTTGGAGGGT	0.977 ± 0.047
TCGGACTCGG	0.963 ± 0.017
GAGGAGGGGA	1.01 ± 0.018
CGTGGAGTCG	0.989 ± 0.1
TTTTGATCGA	1.03 ± 0.11
TGGGAGGAAT	0.988 ± 0.037
TTAGAGAAGT	0.987 ± 0.019
AAAAATGAGA	0.998 ± 0.043
AGGGGGGGGA	1.01 ± 0.05
CGAAAATCTT	0.9949 ± 0.0095
TAATTGTAAT	1.04 ± 0.014
TGATAATAGA	0.9953 ± 0.0011
CAGCTTAGGG	1.01 ± 0.036

Sequence	switch fluorescence ratio
AGAACTGGCT	0.988 ± 0.011
GGGTCTAAGG	1.007 ± 0.0045
TGACTACATG	1.04 ± 0.013
GCCAGTAAGT	0.994 ± 0.039
GGCCCAGGAT	1.07 ± 0.094
GGGAATCGTG	0.983 ± 0.012
GGAAGCTTCC	1.127 ± 0.0032
AAGTTCACCA	1.02 ± 0.018
GCTGCTTGGG	1.01 ± 0.019
GAGATATTGT	1.03 ± 0.038
TTTTGTGTTG	0.996 ± 0.013
TGCGGGGCGG	1.02 ± 0.034
CATGCATTTT	1.09 ± 0.079
TGGTAAAAAG	1.025 ± 0.0047
AGGGAAGCTT	0.972 ± 0.035
CTGGTCCAGG	1.12 ± 0.034
GGGTGAAAAG	1.04 ± 0.033
CCGTGTTCTA	1.03 ± 0.063
ATACGATATT	1.142 ± 0.0033
AAGTTTATAG	1.03 ± 0.0066
GGGGCGGGGT	1.01 ± 0.018
AAGATGTCGT	1.022 ± 0.0014

Sequence	switch fluorescence ratio
GTTAAAGGTA	0.962 ± 0.019
CTGGGGGTGC	1.06 ± 0.017
AACTCCGGCG	1.129 ± 0.0087
GGGTTTAGGG	1 ± 0.045
ACAGTATGGA	1 ± 0.011
AAAACGGAGA	1.02 ± 0.014
ACTTATGATA	1.02 ± 0.054
TTCGTCATTT	0.983 ± 0.034
CATGAAGATG	0.98 ± 0.012
TGGGTTATAG	0.9786 ± 0.0038
GTAGGACCTA	1.01 ± 0.018
AATTTCTGTG	0.978 ± 0.035
ACTAGTATGC	0.992 ± 0.017
ACATTGTGTA	0.9955 ± 0.0068
TGAGGCAGGG	1.037 ± 0.0042
TGGGTAGGAG	0.987 ± 0.025
GAGGGCGGCA	1.02 ± 0.036
ATGGGCGCGC	0.982 ± 0.036
GGTAGGGGTG	1.07 ± 0.033
